Reference: patent US20260174875A1 (Novo Nordisk A/S, priority 2023, published 2026)
Numbered stars: 1 amine (or outer) side, 2 acyl side, 3 side chain; on linkers, the order of the positions; unused ones are H or OH. Square brackets hold non-standard residues; d marks the D form. Side chains are listed from the residue outwards. * marks the point of attachment. C20 diacid = O=C(O)CCCCCCCCCCCCCCCCCCC(=O)*; C18 diacid = O=C(O)CCCCCCCCCCCCCCCCC(=O)*; C16 diacid = O=C(O)CCCCCCCCCCCCCCC(=O)*; γGlu = O=C(O)[C@H](CCC(=O)[*:2])N[*:1]; Chem. 28 = not defined here; AEEA = NCCOCCOCC(=O)O; Aib = CC(C)(N)C(=O)O

Key:
[1] = Chemical stability assessment in formulation (UPLC-UV-MS purity loss at 37° C.); assay type: physicochemical; details: 8 mM phosphate buffer pH 7.4, 1 mg/mL, 2 weeks
Experimental: The assay was performed to investigate the extend of chemical degradation in vitro over time upon incubation at 37° C. for a period of 2 weeks.
Peptide solutions were prepared by dissolving freeze-dried powder in 8 mM phosphate buffer pH 7.4 to a target of 1 mg/mL. The pH of peptide solutions was adjusted to 7.4 with 0.02 M HCl or 0.02 M NaOH. Samples were filled in Agilent HPLC vials with fixed insert. Vials were capped to prevent evaporation. The HPLC vials were incubated at 37° C. and samples were withdrawn at different time points over a period of 2 weeks, flash frozen at −80° C., and stored at −20° C. until analysis.
A flow-rate of 100 μL/min was delivered with a Binary solvent manager pump having 0.1% formic acid in water as solvent A and 0.1% formic acid in acetonitrile as solvent B. Gradient elution was carried out using 20% B from 0 to 2 min followed by 20 to 50% B from 2 to 20 min in a total run time of 30 min.

human GLP-1 receptor [2] = molecular target: T1, human GLP-1 receptor (human, UniProt P43220 24-463); experiment: cell-based or functional assay
human GIP receptor [3] = molecular target: T2, human GIP receptor (human, UniProt P48546 22-466); experiment: cell-based or functional assay
T2 sequence (looked up): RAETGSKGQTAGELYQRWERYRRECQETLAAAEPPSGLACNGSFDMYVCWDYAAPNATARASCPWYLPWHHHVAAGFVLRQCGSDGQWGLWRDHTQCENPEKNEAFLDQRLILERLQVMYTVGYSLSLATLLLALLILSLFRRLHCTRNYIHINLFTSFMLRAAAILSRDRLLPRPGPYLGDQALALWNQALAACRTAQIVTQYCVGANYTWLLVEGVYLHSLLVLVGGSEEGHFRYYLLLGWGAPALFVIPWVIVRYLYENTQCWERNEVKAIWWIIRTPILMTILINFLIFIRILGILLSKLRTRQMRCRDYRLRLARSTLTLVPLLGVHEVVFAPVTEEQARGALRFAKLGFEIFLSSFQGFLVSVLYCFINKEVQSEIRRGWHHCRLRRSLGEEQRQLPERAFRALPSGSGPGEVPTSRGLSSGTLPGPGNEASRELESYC

[4] = molecular target: T3, human amylin-3(a) receptor (human, UniProt P30988 25-474; O60896 24-148); experiment: cell-based or functional assay
T3 sequence (looked up) 1: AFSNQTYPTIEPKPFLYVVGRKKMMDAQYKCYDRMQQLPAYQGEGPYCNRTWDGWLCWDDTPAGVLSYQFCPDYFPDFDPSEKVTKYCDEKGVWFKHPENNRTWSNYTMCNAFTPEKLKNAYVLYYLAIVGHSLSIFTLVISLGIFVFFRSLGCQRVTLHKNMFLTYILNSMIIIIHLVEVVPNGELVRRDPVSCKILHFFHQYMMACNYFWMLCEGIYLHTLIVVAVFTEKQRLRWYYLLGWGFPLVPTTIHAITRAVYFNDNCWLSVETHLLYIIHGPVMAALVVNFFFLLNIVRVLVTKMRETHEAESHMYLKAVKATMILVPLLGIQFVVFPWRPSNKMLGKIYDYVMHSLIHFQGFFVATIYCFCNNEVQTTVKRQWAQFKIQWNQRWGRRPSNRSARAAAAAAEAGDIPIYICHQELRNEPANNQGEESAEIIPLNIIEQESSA
T3 sequence (looked up) 2: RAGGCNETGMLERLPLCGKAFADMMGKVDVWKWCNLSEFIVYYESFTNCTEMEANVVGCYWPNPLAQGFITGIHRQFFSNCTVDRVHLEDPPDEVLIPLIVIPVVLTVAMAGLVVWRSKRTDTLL

human GLP-1 receptor [5] = molecular target: T1, human GLP-1 receptor; experiment: cell-based or functional assay; remark: listed apart in the source
human GIP receptor [6] = molecular target: T2, human GIP receptor; experiment: cell-based or functional assay; remark: listed apart in the source
[7] = molecular target: T3, human amylin-3(a) receptor; experiment: cell-based or functional assay; remark: listed apart in the source

Row | Molecule | Purity loss per week at 37° C. [1] | hGLP-1R Potency, no HSA, EC50 [pM] (human GLP-1 receptor [2]) | hGIPR Potency, no HSA, EC50 [pM] (human GIP receptor [3]) | hAMYR3 Potency, no HSA, EC50 [pM] [4] | hGLP-1R Potency, 1% HSA, EC50 [pM] (human GLP-1 receptor [5]) | hGIPR Potency, 1% HSA, EC50 [pM] (human GIP receptor [6]) | hAMYR3 Potency, 1% HSA, EC50 [pM] [7]
1 | CC[C@H](C)[C@H](NC(=O)[C@H](CCC(=O)O)NC(=O)[C@H](CCC(=O)O)NC(=O)[C@H](CC(C)C)NC(=O)[C@H](CC(C)C)NC(=O)[C@H](CCCCNC(=O)COCCOCCNC(=O)COCCOCCNC(=O)CC[C@H](NC(=O)CCCCCCCCCCCCCCCCCCC(=O)O)C(=O)O)NC(=O)[C@H](CO)NC(=O)[C@H](Cc1ccc(O)cc1)NC(=O)[C@H](CC(=O)O)NC(=O)[C@H](CO)NC(=O)[C@@H](NC(=O)[C@H](Cc1ccccc1)NC(=O)[C@@H](NC(=O)CNC(=O)[C@H](CCC(=O)O)NC(=O)C(C)(C)NC(=O)[C@@H](N)Cc1ccc(O)cc1)[C@@H](C)O)[C@@H](C)O)C(=O)N[C@@H](C)C(=O)N[C@@H](C)C(=O)N[C@@H](CCCNC(=N)N)C(=O)N[C@@H](CCC(=O)O)C(=O)N[C@@H](Cc1ccccc1)C(=O)N[C@H](C(=O)N[C@@H](CCC(=O)O)C(=O)N[C@@H](Cc1c[nH]c2ccccc12)C(=O)N[C@@H](CC(C)C)C(=O)N[C@@H](CC(C)C)C(=O)N[C@@H](C)C(=O)NCC(=O)NCC(=O)N1CCC[C@H]1C(=O)N[C@@H](CO)C(=O)N[C@@H](CO)C(=O)N[C@@H](CCC(=O)O)C(=O)N[C@@H](C)C(=O)NCC(=O)N[C@@H](C)C(=O)N[C@@H](CO)C(=O)N[C@@H](Cc1c[nH]cn1)C(=O)N[C@@H](CC(C)C)C(=O)N[C@@H](CO)C(=O)N[C@H](C(=O)N[C@@H](C)C(=O)N[C@@H](CCC(N)=O)C(=O)N[C@@H](CC(C)C)C(=O)NCC(=O)N[C@@H](CCCNC(=N)N)C(=O)N[C@@H](CC(C)C)C(=O)N[C@@H](CO)C(=O)N[C@@H](C)C(=O)N[C@@H](CCC(=O)O)C(=O)N[C@@H](CC(C)C)C(=O)N[C@@H](Cc1c[nH]cn1)C(=O)N[C@@H](CCC(N)=O)C(=O)N[C@@H](CC(C)C)C(=O)N[C@@H](C)C(=O)N[C@H](C(=O)N[C@@H](CCC(=O)O)C(=O)N1CCC[C@H]1C(=O)N[C@@H](CCCNC(=N)N)C(=O)N[C@H](C(=O)N[C@@H](CCC(=O)O)C(=O)N[C@H](C(=O)NCC(=O)N[C@@H](CO)C(=O)NCC(=O)N[C@@H](CO)C(=O)N1CCC[C@H]1C(N)=O)[C@@H](C)O)[C@@H](C)O)[C@@H](C)O)[C@@H](C)O)[C@@H](C)CC [Compound 185] | 1.7% | – | – | – | – | – | –
2 | Compound 26 (reading uncertain) peptide: Y[Aib]EGTFTSDYSILLEEQAAREFIEWLLAGGPSK(Chem. 28)GEASELSTAALGRLSAELHELATLPRTETGSGSP-NH2 | – | 20.7 pM | 1.75 pM | 11.8 pM | 1680 pM | 558 pM | 349 pM
3 | Compound 17 (peptide) peptide: H[Aib]HGTFTSDYSILLEEQAAREFIEWLLAGGPSK([AEEA-AEEA-γGlu-C16 diacid])GEASELSTAALGRLSAELHRLATLPRTETGSGSP-NH2 | – | 2.72 pM | 5.04 pM | 5.13 pM | 13.1 pM | 36.9 pM | 33.6 pM
4 | Compound 15 (peptide) peptide: H[Aib]HGTFTSDYSILLEEQAAREFIEWLLAGGPSK([AEEA-AEEA-γGlu-C18 diacid])GAPPPSGGGEASELSTAALGRLSAELHELATLPRTETGSGSP-NH2 | – | 1.41 pM | 3.2 pM | 5.01 pM | 103 pM | 356 pM | 82.2 pM
5 | Compound 113 (peptide) peptide: Y[Aib]EGTFTSDYSILLEEQAAREFIEWLLAGGPSSGAGQAPGQAPGASHLSTAQTARLSAELHK([AEEA-AEEA-γGlu-C18 diacid])LATLPRTETGSGSP-NH2 | – | 14.4 pM | 2.02 pM | 2.53 pM | 57.5 pM | 8.96 pM | 136 pM
6 | Compound 16 (peptide) peptide: H[Aib]HGTFTSDYSILLEEQAAREFIEWLLAGGPSK([AEEA-AEEA-γGlu-C20 diacid])GAPPPSGGGEASELSTAALGRLSAELHELATLPRTETGSGSP-NH2 | – | 2.74 pM | 4.27 pM | 5.7 pM | 238 pM | 485 pM | 166 pM
7 | Compound 112 (peptide) peptide: H[Aib]HGTFTSDYSILLEEQAAREFIEWLLAGGPSK([γGlu-C18 diacid])GAPPPSGGGEASHLSTAQTARLSAELHRLADLPRTETGSGSP-NH2 | – | 4.37 pM | 2.42 pM | 3.65 pM | 336 pM | 321 pM | 269 pM
8 | Compound 114 (peptide) peptide: Y[Aib]EGTFTSDYSILLEEQAAREFIEWLLAGGPSSGAGQAPGQAPGASHLSTAALARLSAELHK([AEEA-AEEA-γGlu-C18 diacid])LATLPRTETGSGSP-NH2 | – | 43.3 pM | 4.29 pM | 2.27 pM | 126 pM | 17.2 pM | 45.2 pM
9 | Compound 12 (peptide) peptide: H[Aib]HGTFTSDYSILLEEQAAREFIEWLLAGGPSK([AEEA-AEEA-γGlu-C16 diacid])GAPPPSGGGEASELSTAALGRLSAELHELATLPRTETGSGSP-NH2 | – | 0.8 pM | 2.62 pM | 6.23 pM | 10.2 pM | 59.1 pM | 55 pM
10 | Compound 14 (peptide) peptide: H[Aib]HGTFTSDYSILLEEQAAREFIEWLLAGGPSK([AEEA-AEEA-γGlu-C18 diacid])GAPPPSGGGGASELSTAALGRLSAELHRLATLPRTETGSGSP-NH2 | – | 2.05 pM | 5.84 pM | 2.21 pM | 75.9 pM | 254 pM | 33.4 pM
